Assay results: article PMC9352680, “A comprehensive thermodynamic model for RNA binding by the Saccharomyces cerevisiae Pumilio protein PUF4”

Biological target: T1, PUF4 RNA-binding domain (Saccharomyces cerevisiae, UniProt P25339 537-888)
T1 sequence: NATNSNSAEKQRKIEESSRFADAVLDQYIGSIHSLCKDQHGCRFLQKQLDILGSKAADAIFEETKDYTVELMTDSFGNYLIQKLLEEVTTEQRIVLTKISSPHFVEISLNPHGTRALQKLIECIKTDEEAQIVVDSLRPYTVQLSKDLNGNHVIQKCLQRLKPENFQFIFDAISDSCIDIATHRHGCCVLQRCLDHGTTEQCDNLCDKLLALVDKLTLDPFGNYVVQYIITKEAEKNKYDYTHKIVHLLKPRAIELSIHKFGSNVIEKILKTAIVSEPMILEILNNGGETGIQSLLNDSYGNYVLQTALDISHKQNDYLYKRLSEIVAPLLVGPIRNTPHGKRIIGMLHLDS
Assay: Mg; RNA-MaP; 20 mM Na-HEPES pH 7.4, 30 mM KOAc, 0.75 mM MgCl2, 0.1% Tween-20, 5% glycerol, 0.1 mg/mL BSA, 2 mM DTT; 25 C; 0.0125-409.6 nM protein
Settings: tags: N-His6-TEV cleaved; C-SNAP kept, Cy3B-labelled; label: tethered on chip by stalled RNA polymerase

UCUCUUUGUAUAAAAAUCUCUU (ssRNA) [Ic_S1_P5E.1_K5.1_C5.1_H5.1_A5.1_[T6A]_F5.1_[T8A]_[T9A]_T5.1]
Kd: 42 nM

UCUCUUUGUACGGCUGUCUCUU (ssRNA) [Ic_S1_P5E.1_K5.1_C5.1_H5.1_A5.1_[T5C]_[T6G]_[A7G]_F5.1_[T8C]_[A10G]_T5.1]
Kd: 2200 nM

UCUCUUUGUACAUACGUCUCUU (ssRNA) [Ic_S1_P5E.1_K5.1_C5.1_H5.1_A5.1_[T5C]_[T6A]_[A7T]_F5.1_[T8A]_[T9C]_[A10G]_T5.1]
Kd: 11 nM

UCUCUUUCAAUAUAUCUCUU (ssRNA) [Ib_S1_P3E.1_K3.1_C3.1_H3.1_[G2C]_[T3A]_A3.1_F3.1_T3.1]
Kd: > 2300 nM

UCUCUUUGUAUCGUACUCUCUU (ssRNA) [Ic_S1_P5E.1_K5.1_C5.1_H5.1_A5.1_[T6C]_[A7G]_F5.1_[T9A]_[A10C]_T5.1]
Kd: 13.9 nM

UCUCUUUGUAUGGUUGUCUCUU (ssRNA) [Ic_S1_P5E.1_K5.1_C5.1_H5.1_A5.1_[T6G]_[A7G]_F5.1_[A10G]_T5.1]
Kd: 717 nM

UCUCUUUGUACACCGAUCUCUU (ssRNA) [Ic_S1_P5E.1_K5.1_C5.1_H5.1_A5.1_[T5C]_[T6A]_[A7C]_F5.1_[T8C]_[T9G]_T5.1]
Kd: 425 nM

UCUCUUUGUAUAGCCUUCUCUU (ssRNA) [Ic_S1_P5E.1_K5.1_C5.1_H5.1_A5.1_[T6A]_[A7G]_F5.1_[T8C]_[T9C]_[A10T]_T5.1]
Kd: 114 nM

UCUCUUUGUAAAGCUCUCUCUU (ssRNA) [Ic_S1_P5E.1_K5.1_C5.1_H5.1_A5.1_[T5A]_[T6A]_[A7G]_F5.1_[T8C]_[A10C]_T5.1]
Kd: 1270 nM

UCUCUUUGUACUGCGCUCUCUU (ssRNA) [Ic_S1_P5E.1_K5.1_C5.1_H5.1_A5.1_[T5C]_[A7G]_F5.1_[T8C]_[T9G]_[A10C]_T5.1]
Kd: 1380 nM

UCUCUUUGUAUCUAUAUCUCUU (ssRNA) [Ic_S1_P5E.1_K5.1_C5.1_H5.1_A5.1_[T6C]_[A7T]_F5.1_[T8A]_T5.1]
Kd: 11.5 nM

UCUCUUUGUAUCUCUGUCUCUU (ssRNA) [Ic_S1_P5E.1_K5.1_C5.1_H5.1_A5.1_[T6C]_[A7T]_F5.1_[T8C]_[A10G]_T5.1]
Kd: 58.6 nM

UCUCUUUGUAAUUUCGUCUCUU (ssRNA) [Ic_S1_P5E.1_K5.1_C5.1_H5.1_A5.1_[T5A]_[A7T]_F5.1_[T9C]_[A10G]_T5.1]
Kd: 92.7 nM

UCUCUUUGUAAUGUUUUCUCUU (ssRNA) [Ic_S1_P5E.1_K5.1_C5.1_H5.1_A5.1_[T5A]_[A7G]_F5.1_[A10T]_T5.1]
Kd: 118 nM

UCUCUUUGUAAUCAGCUCUCUU (ssRNA) [Ic_S1_P5E.1_K5.1_C5.1_H5.1_A5.1_[T5A]_[A7C]_F5.1_[T8A]_[T9G]_[A10C]_T5.1]
Kd: 1300 nM

UCUCUUUGUACAAAAUUCUCUU (ssRNA) [Ic_S1_P5E.1_K5.1_C5.1_H5.1_A5.1_[T5C]_[T6A]_F5.1_[T8A]_[T9A]_[A10T]_T5.1]
Kd: 30.9 nM

UCUCUUUGUAAAUCAGUCUCUU (ssRNA) [Ic_S1_P5E.1_K5.1_C5.1_H5.1_A5.1_[T5A]_[T6A]_[A7T]_F5.1_[T8C]_[T9A]_[A10G]_T5.1]
Kd: 26.1 nM

UCUCUUUGUACUUCCAUCUCUU (ssRNA) [Ic_S1_P5E.1_K5.1_C5.1_H5.1_A5.1_[T5C]_[A7T]_F5.1_[T8C]_[T9C]_T5.1]
Kd: 666 nM

UCUCUUUGUACACGCCUCUCUU (ssRNA) [Ic_S1_P5E.1_K5.1_C5.1_H5.1_A5.1_[T5C]_[T6A]_[A7C]_F5.1_[T8G]_[T9C]_[A10C]_T5.1]
Kd: 394 nM

UCUCUUUGUAAUUUGCUCUCUU (ssRNA) [Ic_S1_P5E.1_K5.1_C5.1_H5.1_A5.1_[T5A]_[A7T]_F5.1_[T9G]_[A10C]_T5.1]
Kd: 81.9 nM

UCUCUUUGUACCCAUCUCUCUU (ssRNA) [Ic_S1_P5E.1_K5.1_C5.1_H5.1_A5.1_[T5C]_[T6C]_[A7C]_F5.1_[T8A]_[A10C]_T5.1]
Kd: 603 nM

UCUCUUUGUAGCAUCAUCUCUU (ssRNA) [Ic_S1_P5E.1_K5.1_C5.1_H5.1_A5.1_[T5G]_[T6C]_F5.1_[T9C]_T5.1]
Kd: 287 nM

UCUCUUUGUAAUGCUUUCUCUU (ssRNA) [Ic_S1_P5E.1_K5.1_C5.1_H5.1_A5.1_[T5A]_[A7G]_F5.1_[T8C]_[A10T]_T5.1]
Kd: 181 nM

UCUCUUUGUAAUUACGUCUCUU (ssRNA) [Ic_S1_P5E.1_K5.1_C5.1_H5.1_A5.1_[T5A]_[A7T]_F5.1_[T8A]_[T9C]_[A10G]_T5.1]
Kd: 613 nM

UCUCUUUGUAAGCACUUCUCUU (ssRNA) [Ic_S1_P5E.1_K5.1_C5.1_H5.1_A5.1_[T5A]_[T6G]_[A7C]_F5.1_[T8A]_[T9C]_[A10T]_T5.1]
Kd: > 2300 nM

UCUCUUUGUAUUACCUUCUCUU (ssRNA) [Ic_S1_P5E.1_K5.1_C5.1_H5.1_A5.1_F5.1_[T8C]_[T9C]_[A10T]_T5.1]
Kd: 496 nM

UCUCUUUGUAUGGUAUUCUCUU (ssRNA) [Ic_S1_P5E.1_K5.1_C5.1_H5.1_A5.1_[T6G]_[A7G]_F5.1_[T9A]_[A10T]_T5.1]
Kd: 13.3 nM

UCUCUUUCUCUAUAUCUCUU (ssRNA) [Ib_S1_P3E.1_K3.1_C3.1_H3.1_[G2C]_[A4C]_A3.1_F3.1_T3.1]
Kd: > 2300 nM

UCUCUUUGUACAUUACUCUCUU (ssRNA) [Ic_S1_P5E.1_K5.1_C5.1_H5.1_A5.1_[T5C]_[T6A]_[A7T]_F5.1_[T9A]_[A10C]_T5.1]
Kd: 0.694 nM

UCUCUUUGUACUACCCUCUCUU (ssRNA) [Ic_S1_P5E.1_K5.1_C5.1_H5.1_A5.1_[T5C]_F5.1_[T8C]_[T9C]_[A10C]_T5.1]
Kd: 656 nM

UCUCUUUGUACCAUCCUCUCUU (ssRNA) [Ic_S1_P5E.1_K5.1_C5.1_H5.1_A5.1_[T5C]_[T6C]_F5.1_[T9C]_[A10C]_T5.1]
Kd: 12.5 nM

UCUCUUUGUAUCUUGAUCUCUU (ssRNA) [Ic_S1_P5E.1_K5.1_C5.1_H5.1_A5.1_[T6C]_[A7T]_F5.1_[T9G]_T5.1]
Kd: 72.1 nM
